{
  "source": "paper PMC3478540",
  "about": "(Diabetes, 2012)",
  "binders": {"B1": {"name": "^125I-vaspin (iodinated rhVaspin) (natural protein, human, UniProt Q8IW75 21-414, looked up)", "chain": "LKPSFSPRNYKALSEVQGWKQRMAAKELARQNMDLGFKLLKKLAFYNPGRNIFLSPLSISTAFSMLCLGAQDSTLDEIKQGFNFRKMPEKDLHEGFHYIIHELTQKTQDLKLSIGNTLFIDQRLQPQRKFLEDAKNFYSAETILTNFQNLEMAQKQINDFISQKTHGKINNLIENIDPGTVMLLANYIFFRARWKHEFDPNVTKEEDFFLEKNSSVKVPMMFRSGIYQVGYDDKLSCTILEIPYQKNITAIFILPDEGKLKHLEKGLQVDTFSRWKTLLSRRVVDVSVPRLHMTGTFDLKKTLSYIGVSKIFEEHGDLTKIAPHRSLKVGEAVHKAELKMDERGTEGAAGTGAQTLPMETPLVVKIDKPYLLLIYSEKIPSVLFLGKIVNPIGK", "modifications": "125I-iodinated, residues not stated"}},
  "molecular_target": "GRP78 in membrane fractions of mouse liver (mouse (endogenous in liver), UniProt P20029 20-655)",
  "sequence (P20029 20-655)": "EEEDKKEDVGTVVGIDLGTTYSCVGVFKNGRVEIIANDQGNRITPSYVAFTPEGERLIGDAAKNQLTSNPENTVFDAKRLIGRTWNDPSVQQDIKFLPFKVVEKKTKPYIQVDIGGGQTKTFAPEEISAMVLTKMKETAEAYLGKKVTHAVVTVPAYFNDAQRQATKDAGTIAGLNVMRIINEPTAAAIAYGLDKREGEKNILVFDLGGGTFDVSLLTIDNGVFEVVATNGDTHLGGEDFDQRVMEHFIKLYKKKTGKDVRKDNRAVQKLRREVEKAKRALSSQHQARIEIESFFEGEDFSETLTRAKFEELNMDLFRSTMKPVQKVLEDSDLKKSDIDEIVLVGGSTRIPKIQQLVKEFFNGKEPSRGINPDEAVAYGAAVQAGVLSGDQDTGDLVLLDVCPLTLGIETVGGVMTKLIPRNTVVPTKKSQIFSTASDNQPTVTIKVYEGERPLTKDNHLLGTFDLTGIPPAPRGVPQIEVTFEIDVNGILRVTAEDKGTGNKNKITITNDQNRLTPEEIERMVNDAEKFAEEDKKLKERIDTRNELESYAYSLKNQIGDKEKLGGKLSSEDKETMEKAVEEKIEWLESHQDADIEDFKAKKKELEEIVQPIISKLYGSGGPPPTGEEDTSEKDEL",
  "assay": "radioligand binding",
  "data": [
    {"binder": "B1", "values": [
      {"measurement": "Kd", "result": 22.2, "unit": "nM"}
    ]}
  ]
}
